These are literature values, as cited in publication PMC5904127.

As usually defined, the Kd is the equilibrium constant for the complex coming apart.

The target of the data set is apocalmodulin (UniProt P0DP23).

For the substance “neuromodulin IQ domain (from UniProt P17677)”, the Kd is 2 µM.
